Kd data for two molecules are collected here from publication PMC3942486, “The Ansamycin Antibiotic, Rifamycin SV, Inhibits BCL6 Transcriptional Repression and Forms a Complex with the BCL6-BTB/POZ Domain” (PLoS ONE, 2014).

This assay deals with BCL6-POZ domain (residues 7 to 128 of human BCL6, C8Q, C67R, C84N) (human, UniProt P41182 7-128, cysteine8 mutated to glutamine | cysteine67 mutated to arginine | cysteine84 …). The assay is described as follows: fluorescence polarisation; fixed concentration of BODIPY TMR-labelled SMRT peptide, increasing concentration of BCL6-POZ domain; PBS, 0.05% (v/v) Triton X-100, 0.1 mg/mL BSA; room temperature; triplicate; one-site binding (hyperbola) fit. The note with it: both partners purified.

B1: 2-naphthyl-SMRT peptide, labelled with BODIPY TMR (peptide)
chain: LVATVKEAGRSIXEIPR
modifications: 2-naphthylalanine in place of histidine1426; BODIPY TMR dye coupled via the amino-terminal cysteine
B1 returned a Kd of 154 µM.

B2: 1-naphthyl-SMRT peptide, labelled with BODIPY TMR (peptide)
chain: LVATVKEAGRSIXEIPR
modifications: 1-naphthylalanine in place of histidine1426; BODIPY TMR dye coupled via the amino-terminal cysteine
As for B2, the Kd amounted to 11 µM.
